Laboratory results as given in patent US20250313621A1.
pEC50: −log10 of the molar value.

Legend:
[1] = biological target: Wildtype human PAR2 expressed on cells (human) (UniProt P55085); test: cell-based or functional assay
[2] = biological target: Wildtype human PAR 1 (human) (UniProt P25116); test: cell-based or functional assay
[3] = biological target: V5His-huPAR2 on Flp-In CHO cells (human) (UniProt P55085); test: FACS titration on CHO_V5HIS-huPAR2 cells versus CHO parental cells (flat), RLU, axis Ab [nM]
Sequence of V5His-huPAR2 on Flp-In CHO cells (human) (P55085 37-397 limits assumed): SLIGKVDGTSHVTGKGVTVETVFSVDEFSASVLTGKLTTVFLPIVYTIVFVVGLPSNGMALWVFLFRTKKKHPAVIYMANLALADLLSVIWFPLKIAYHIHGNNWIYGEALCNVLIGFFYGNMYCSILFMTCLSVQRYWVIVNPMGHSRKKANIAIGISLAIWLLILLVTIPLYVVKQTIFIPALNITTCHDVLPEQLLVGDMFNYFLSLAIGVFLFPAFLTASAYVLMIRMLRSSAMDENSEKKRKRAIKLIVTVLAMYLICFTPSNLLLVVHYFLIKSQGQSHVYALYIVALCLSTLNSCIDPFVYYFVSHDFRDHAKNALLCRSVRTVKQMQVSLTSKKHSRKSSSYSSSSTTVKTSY

Sequence of Wildtype human PAR 1 (human) (P25116 42-425 limits assumed): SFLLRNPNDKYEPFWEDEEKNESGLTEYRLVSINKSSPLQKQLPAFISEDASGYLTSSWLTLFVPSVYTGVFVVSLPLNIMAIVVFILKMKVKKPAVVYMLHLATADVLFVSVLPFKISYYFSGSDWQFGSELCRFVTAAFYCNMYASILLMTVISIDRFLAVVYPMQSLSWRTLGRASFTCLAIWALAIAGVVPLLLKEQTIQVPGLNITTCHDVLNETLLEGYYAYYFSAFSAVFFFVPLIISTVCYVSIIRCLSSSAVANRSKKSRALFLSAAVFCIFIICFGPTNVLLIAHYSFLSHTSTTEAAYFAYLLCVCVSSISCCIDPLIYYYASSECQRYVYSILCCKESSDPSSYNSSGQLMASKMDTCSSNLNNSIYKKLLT
Sequence of Wildtype human PAR2 expressed on cells (human) (P55085 37-397 limits assumed): as the sequence (P55085 37-397 limits assumed) above

Question: Which results are given for MAB3949 (antibody)?
Answer: % Max Inhibition, AP challenge, IP-One [1]: 100%; % Max Inhibition, Bovine Trypsin challenge, IP-One [1]: 0%; Human PAR1 SFLLR IC50, IP-One [2]: > 1000 nM; SFLLR fold inhibition, human PAR1, IP-One [2]: 0 fold; pEC50 [3]: 8.17
